Results reported in publication PMC9680610.

Key:
Experiment in all cases: mass photometry
[1] = molecular target: SARS-CoV-2 spike, wild-type (Wuhan-hu-1 strain), HexaPro stabilised (K986P, V987P, F817P, A892P, A89 (SARS-CoV-2 (Wuhan-hu-1 strain)) (UniProt P0DTC2))
[2] = molecular target: SARS-CoV-2 spike, Omicron (B.1.1.529 strain), 2P stabilised (SARS-CoV-2 (Omicron B.1.1.529 strain)) (UniProt P0DTC2)
[3] = molecular target: SARS-CoV-2 spike, Omicron (B.1.1.529 strain), HexaPro stabilised (SARS-CoV-2 (Omicron B.1.1.529 strain)) (UniProt P0DTC2)
[4] = molecular target: SARS-CoV-2 spike, wild-type (Wuhan-hu-1 strain), 2P stabilised (K986P, V987P), soluble recombinant (SARS-CoV-2 (Wuhan-hu-1 strain)) (UniProt P0DTC2)

| Substance | percent of spike counts that are trimer [1] [%] | stoichiometry N [2] | stoichiometry N [3] | percent of spike with one ACE2 bound [4] [%] | percent of spike with two ACE2 bound [4] [%] | stoichiometry N [4] | percent of spike with two ACE2 bound [1] [%] | stoichiometry N [1] |
| --- | --- | --- | --- | --- | --- | --- | --- | --- |
| SARS-CoV-2 spike, wild-type (Wuhan-hu-1 strain), HexaPro stabilised (K986P, V987P, F817P, A892P, A89 (from UniProt P0DTC2 14-1208) (natural protein) | 90 |  |  |  |  |  |  |  |
| angiotensin-converting enzyme-2 (ACE2) with the neck domain (from UniProt Q9BYF1 18-740) (receptor) |  | < 3 | < 3 | 42 | 8 | < 3 | 7 | < 3 |
| angiotensin-converting enzyme-2 (ACE2) without the neck domain (from UniProt Q9BYF1 18-740) (receptor) |  | < 3 | < 3 |  |  |  |  |  |
